Series [1] concerns the target T1, MtLAP (leucine aminopeptidase of M. tuberculosis, Rv2213) (Mycobacterium tuberculosis, UniProt P9WHT3).
T1 construct: gene pepA
In words: biochemical.

For series [2], the system named is Cc1cc(=O)oc2cc(NC(=O)[C@@H](N)CC(C)C)ccc12. The series is described as follows: purified protein. To be noted: divalent metal (Ni2+, […] NiSO4 in the assay).
Series [3] concerns Cc1cc(=O)oc2cc(NC(=O)[C@@H]3CCCN3)ccc12. In words: purified protein. To be noted: divalent metal (Ni2+, […] NiSO4 in the assay).
The subject of series [4] is CSCC[C@H](N)C(=O)Nc1ccc2c(C)cc(=O)oc2c1. In words: purified protein. To be noted: divalent metal (Ni2+, […] NiSO4 in the assay).
Series [5] deals with the molecule itself. The series is described as follows: AUC + SEC.

For the molecule `CC(C)C[C@H](NC(=O)[C@@H](O)[C@H](N)Cc1ccccc1)C(=O)O` [bestatin], the IC50 in series [1] amounted to 53.8 nM.

Regarding “MtLAP (leucine aminopeptidase of M. tuberculosis, Rv2213) (Mycobacterium tuberculosis H37Rv)”, the Km in series [2] stood at 69.4 ± 3.6 µM; in series [3], 344.8 ± 49.2 µM; in series [4], 61.8 ± 4.4 µM.

B1: leucine aminopeptidase of M. tuberculosis (MtLAP) (enzyme)
chain: MTTEPGYLSPSVAVATSMPKRGVGAAVLIVPVVSTGEEDRPGAVVASAEPFLRADTVAEIEAGLRALDATGASDQVHRLAVPSLPVGSVLTVGLGKPRREWPADTIRCAAGVAARALNSSEAVITTLAELPGDGICSATVEGLILGSYRFSAFRSDKTAPKDAGLRKITVLCCAKDAKKRALHGAAVATAVATARDLVNTPPSHLFPAEFAKRAKTLSESVGLDVEVIDEKALKKAGYGGVIGVGQGSSRPPRLVRLIHRGSRLAKNPQKAKKVALVGKGITFDTGGISIKPAASMHHMTSDMGGAAAVIATVTLAARLRLPIDVIATVPMAENMPSATAQRPGDVLTQYGGTTVEVLNTDAEGRLILADAIVRACEDKPDYLIETSTLTGAQTVALGTRIPGVMGSDEFRDRVAAISQRVGENGWPMPLPDDLKDDLKSTVADLANVSGQRFAGMLVAGVFLREFVAESVDWAHIDVAGPAYNTGSAWGYTPKGATGVPTRTMFAVLEDIAKNG
notes: also called M. tuberculosis LAP; Rv2213
In the case of B1, the “stoichiometry N” value in series [5] was 6.

Source of the values: article PMC5366330, “The Activity of a Hexameric M17 Metallo-Aminopeptidase Is Associated With Survival of Mycobacterium tuberculosis” (Frontiers in Microbiology, 2017).
